From IntAct's records for PubMed 29892012

B1: Abl interactor 2 (Homo sapiens), Q9NYB9 (parent)
chain: MAELQMLLEEEIPGGRRALFDSYTNLERVADYCENNYIQSADKQRALEETKAYTTQSLASVAYLINTLANNVLQMLDIQASQLRRMESSINHISQTVDIHKEKVARREIGILTTNKNTSRTHKIIAPANLERPVRYIRKPIDYTILDDIGHGVKWLLRFKVSTQNMKMGGLPRTTPPTQKPPSPPMSGKGTLGRHSPYRTLEPVRPPVVPNDYVPSPTRNMAPSQQSPVRTASVNQRNRTYSSSGSSGGSHPSSRSSSRENSGSGSVGVPIAVPTPSPPSVFPAPAGSAGTPPLPATSASAPAPLVPATVPSSTAPNAAAGGAPNLADGFTSPTPPVVSSTPPTGHPVQFYSMNRPASRHTPPTIGGSLPYRRPPSITSQTSLQNQMNGGPFYSQNPVSDTPPPPPPVEEPVFDESPPPPPPPEDYEEEEAAVVEYSDPYAEEDPPWAPRSYLEKVVAIYDYTKDKEDELSFQEGAIIYVIKKNDDGWYEGVMNGVTGLFPGNYVESIMHYSE
partner: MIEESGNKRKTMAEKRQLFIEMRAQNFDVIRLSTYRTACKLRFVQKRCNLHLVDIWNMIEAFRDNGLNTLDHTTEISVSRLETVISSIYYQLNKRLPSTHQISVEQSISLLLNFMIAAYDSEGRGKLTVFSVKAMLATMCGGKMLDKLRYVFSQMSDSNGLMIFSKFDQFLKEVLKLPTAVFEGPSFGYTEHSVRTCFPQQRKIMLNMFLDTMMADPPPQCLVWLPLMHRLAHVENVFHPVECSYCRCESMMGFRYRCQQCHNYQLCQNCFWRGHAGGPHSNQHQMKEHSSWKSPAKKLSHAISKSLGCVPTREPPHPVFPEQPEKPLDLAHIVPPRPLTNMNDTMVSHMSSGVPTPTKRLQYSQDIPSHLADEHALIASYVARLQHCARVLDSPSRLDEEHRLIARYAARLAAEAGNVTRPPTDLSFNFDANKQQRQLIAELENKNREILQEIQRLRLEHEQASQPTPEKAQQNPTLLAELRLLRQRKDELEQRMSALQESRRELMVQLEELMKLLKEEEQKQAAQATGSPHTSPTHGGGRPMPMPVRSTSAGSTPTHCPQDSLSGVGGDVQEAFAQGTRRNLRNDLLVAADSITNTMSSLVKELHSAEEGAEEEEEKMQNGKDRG
B2: E3 ubiquitin-protein ligase LNX (Homo sapiens), Q8TBB1 (parent)
chain: MNQPESANDPEPLCAVCGQAHSLEENHFYSYPEEVDDDLICHICLQALLDPLDTPCGHTYCTLCLTNFLVEKDFCPMDRKPLVLQHCKKSSILVNKLLNKLLVTCPFREHCTQVLQRCDLEHHFQTSCKGASHYGLTKDRKRRSQDGCPDGCASLTATAPSPEVSAAATISLMTDEPGLDNPAYVSSAEDGQPAISPVDSGRSNRTRARPFERSTIRSRSFKKINRALSVLRRTKSGSAVANHADQGRENSENTTAPEVFPRLYHLIPDGEITSIKINRVDPSESLSIRLVGGSETPLVHIIIQHIYRDGVIARDGRLLPGDIILKVNGMDISNVPHNYAVRLLRQPCQVLWLTVMREQKFRSRNNGQAPDAYRPRDDSFHVILNKSSPEEQLGIKLVRKVDEPGVFIFNVLDGGVAYRHGQLEENDRVLAINGHDLRYGSPESAAHLIQASERRVHLVVSRQVRQRSPDIFQEAGWNSNGSWSPGPGERSNTPKPLHPTITCHEKVVNIQKDPGESLGMTVAGGASHREWDLPIYVISVEPGGVISRDGRIKTGDILLNVDGVELTEVSRSEAVALLKRTSSSIVLKALEVKEYEPQEDCSSPAALDSNHNMAPPSDWSPSWVMWLELPRCLYNCKDIVLRRNTAGSLGFCIVGGYEEYNGNKPFFIKSIVEGTPAYNDGRIRCGDILLAVNGRSTSGMIHACLARLLKELKGRITLTIVSWPGTFL
partner: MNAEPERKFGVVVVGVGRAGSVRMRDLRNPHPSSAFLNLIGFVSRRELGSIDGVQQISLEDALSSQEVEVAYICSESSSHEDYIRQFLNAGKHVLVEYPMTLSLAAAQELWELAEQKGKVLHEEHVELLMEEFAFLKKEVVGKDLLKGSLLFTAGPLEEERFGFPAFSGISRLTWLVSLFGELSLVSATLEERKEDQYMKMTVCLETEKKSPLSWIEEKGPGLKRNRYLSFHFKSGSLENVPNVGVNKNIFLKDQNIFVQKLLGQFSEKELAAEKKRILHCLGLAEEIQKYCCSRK
B3: Muscleblind-like protein 1 (Homo sapiens), Q9NR56 (parent)
chain: MAVSVTPIRDTKWLTLEVCREFQRGTCSRPDTECKFAHPSKSCQVENGRVIACFDSLKGRCSRENCKYLHPPPHLKTQLEINGRNNLIQQKNMAMLAQQMQLANAMMPGAPLQPVPMFSVAPSLATNASAAAFNPYLGPVSPSLVPAEILPTAPMLVTGNPGVPVPAAAAAAAQKLMRTDRLEVCREYQRGNCNRGENDCRFAHPADSTMIDTNDNTVTVCMDYIKGRCSREKCKYFHPPAHLQAKIKAAQYQVNQAAAAQAAATAAAMTQSAVKSLKRPLEATFDLGIPQAVLPPLPKRPALEKTNGATAVFNTGIFQYQQALANMQLQQHTAFLPPVPMVHGATPATVSAATTSATSVPFAATATANQIPIISAEHLTSHKYVTQM
partner: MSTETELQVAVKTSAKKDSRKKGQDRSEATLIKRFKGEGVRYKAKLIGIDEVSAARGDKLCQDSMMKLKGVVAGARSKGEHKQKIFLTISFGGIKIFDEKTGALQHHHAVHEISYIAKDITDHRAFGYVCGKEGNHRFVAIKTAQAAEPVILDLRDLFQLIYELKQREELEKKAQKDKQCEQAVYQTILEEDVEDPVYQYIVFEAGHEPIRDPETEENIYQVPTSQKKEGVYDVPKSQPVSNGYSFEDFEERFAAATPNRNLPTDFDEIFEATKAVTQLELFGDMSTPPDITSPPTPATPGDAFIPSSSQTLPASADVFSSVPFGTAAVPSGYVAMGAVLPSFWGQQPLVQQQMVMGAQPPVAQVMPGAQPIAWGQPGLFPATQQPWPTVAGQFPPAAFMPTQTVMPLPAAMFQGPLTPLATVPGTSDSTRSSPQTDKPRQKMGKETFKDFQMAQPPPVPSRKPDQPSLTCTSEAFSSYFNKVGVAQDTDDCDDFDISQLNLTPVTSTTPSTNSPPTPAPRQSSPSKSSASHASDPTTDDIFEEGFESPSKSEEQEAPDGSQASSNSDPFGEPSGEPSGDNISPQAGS
B4: Abl interactor 2 (Homo sapiens), Q9NYB9 (parent)
chain: B1 chain
partner: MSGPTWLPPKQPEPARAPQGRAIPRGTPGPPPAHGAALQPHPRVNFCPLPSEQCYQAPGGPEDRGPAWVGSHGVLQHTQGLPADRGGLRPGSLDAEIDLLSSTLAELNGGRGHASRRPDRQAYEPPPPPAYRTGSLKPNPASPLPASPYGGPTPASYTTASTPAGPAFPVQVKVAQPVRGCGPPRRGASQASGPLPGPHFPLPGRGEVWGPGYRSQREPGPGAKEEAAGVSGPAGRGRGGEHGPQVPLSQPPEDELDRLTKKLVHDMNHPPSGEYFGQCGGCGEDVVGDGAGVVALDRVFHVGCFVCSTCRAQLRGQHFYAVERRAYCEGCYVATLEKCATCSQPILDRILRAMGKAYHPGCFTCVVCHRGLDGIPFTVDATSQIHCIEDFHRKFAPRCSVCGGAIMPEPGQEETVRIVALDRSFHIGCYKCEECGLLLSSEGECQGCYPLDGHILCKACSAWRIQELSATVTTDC
B5: Abl interactor 2 (Homo sapiens), Q9NYB9 (parent)
chain: B1 chain
partner: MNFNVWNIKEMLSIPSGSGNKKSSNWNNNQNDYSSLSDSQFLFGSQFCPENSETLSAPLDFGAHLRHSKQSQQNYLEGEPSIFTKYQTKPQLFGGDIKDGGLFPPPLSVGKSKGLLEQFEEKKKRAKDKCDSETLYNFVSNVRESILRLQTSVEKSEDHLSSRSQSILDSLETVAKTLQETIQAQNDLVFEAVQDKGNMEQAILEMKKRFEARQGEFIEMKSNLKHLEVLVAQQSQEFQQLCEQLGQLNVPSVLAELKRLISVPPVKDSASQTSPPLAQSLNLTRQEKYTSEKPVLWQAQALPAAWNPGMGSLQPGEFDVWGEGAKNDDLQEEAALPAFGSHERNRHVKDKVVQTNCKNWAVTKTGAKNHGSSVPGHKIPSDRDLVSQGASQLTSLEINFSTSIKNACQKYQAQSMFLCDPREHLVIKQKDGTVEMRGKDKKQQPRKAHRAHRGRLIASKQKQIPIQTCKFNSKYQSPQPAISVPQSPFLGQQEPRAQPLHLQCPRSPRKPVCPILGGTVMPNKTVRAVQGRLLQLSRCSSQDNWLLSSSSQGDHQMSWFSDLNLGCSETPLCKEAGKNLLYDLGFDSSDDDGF
B6: Galectin-8 (Homo sapiens), O00214 (parent)
chain: MMLSLNNLQNIIYNPVIPFVGTIPDQLDPGTLIVIRGHVPSDADRFQVDLQNGSSMKPRADVAFHFNPRFKRAGCIVCNTLINEKWGREEITYDTPFKREKSFEIVIMVLKDKFQVAVNGKHTLLYGHRIGPEKIDTLGIYGKVNIHSIGFSFSSDLQSTQASSLELTEISRENVPKSGTPQLRLPFAARLNTPMGPGRTVVVKGEVNANAKSFNVDLLAGKSKDIALHLNPRLNIKAFVRNSFLQESWGEEERNITSFPFSPGMYFEMIIYCDVREFKVAVNGVHSLEYKHRFKELSSIDTLEINGDIHLLEVRSW
B7: Isoform 2 of Synaptoporin (Homo sapiens), Q8TBG9-2 (parent)
chain: MDPVSQLASAGTFRVLKEPLAFLRALELLFAIFAFATCGGYSGGLRLSVDCVNKTESNLSIDIAFAYPFRLHQVTFEVPTCEGKERQKLALIGDSSSSAEFFVTVAVFAFLYSLAATVVYIFFQNKYRENNRGPLIDFIVTVVFSFLWLVGSSAWAKGLSDVKVATDPKEVLLLMSACKQPSNKCMAIHSPVMSSLNTSVVFGFLNFILWAGNIWFVFKETGWHSSGQRYLSDPMEKHSSSYNQGGYNQDSYGSSSGYSQQASLGPTSDEFGQQPTGPTSFTNQI
partner: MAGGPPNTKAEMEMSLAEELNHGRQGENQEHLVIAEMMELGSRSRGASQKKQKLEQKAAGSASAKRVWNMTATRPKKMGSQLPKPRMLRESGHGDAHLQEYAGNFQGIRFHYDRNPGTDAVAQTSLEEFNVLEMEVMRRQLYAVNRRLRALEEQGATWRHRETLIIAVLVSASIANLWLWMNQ

Variants of: B1
Conditions: with dtnb_human DTNB

| Variant | effect of a mutation on the interaction |
| --- | --- |
| R373C | with no effect |

Variants of: B1
Conditions: with dtnb_human DTNB
Remark: another data set of the same source

| Variant | effect of a mutation on the interaction |
| --- | --- |
| E202K | with no effect |

Variants of: B2
Conditions: with biea_human BLVRA

| Variant | effect of a mutation on the interaction |
| --- | --- |
| E295K | disrupting interaction strength |

Variants of: B3
Conditions: with dab1_human DAB1, O75553

| Variant | effect of a mutation on the interaction |
| --- | --- |
| V45A | with no effect |

Variants of: B4
Conditions: with trip6_human TRIP6, Q15654

| Variant | effect of a mutation on the interaction |
| --- | --- |
| E202K | with no effect |

Variants of: B4
Conditions: with trip6_human TRIP6, Q15654
Remark: another data set of the same source

| Variant | effect of a mutation on the interaction |
| --- | --- |
| R373C | with no effect |

Variants of: B5
Conditions: with iho1_human IHO1, Q8IYA8

| Variant | effect of a mutation on the interaction |
| --- | --- |
| E202K | with no effect |

Variants of: B5
Conditions: with iho1_human IHO1, Q8IYA8
Remark: another data set of the same source

| Variant | effect of a mutation on the interaction |
| --- | --- |
| R373C | with no effect |

Variants of: B6
Conditions: with taxb1_human TAX1BP1, Q86VP1
Chain of taxb1_human TAX1BP1, Q86VP1 (Q86VP1 whole entry): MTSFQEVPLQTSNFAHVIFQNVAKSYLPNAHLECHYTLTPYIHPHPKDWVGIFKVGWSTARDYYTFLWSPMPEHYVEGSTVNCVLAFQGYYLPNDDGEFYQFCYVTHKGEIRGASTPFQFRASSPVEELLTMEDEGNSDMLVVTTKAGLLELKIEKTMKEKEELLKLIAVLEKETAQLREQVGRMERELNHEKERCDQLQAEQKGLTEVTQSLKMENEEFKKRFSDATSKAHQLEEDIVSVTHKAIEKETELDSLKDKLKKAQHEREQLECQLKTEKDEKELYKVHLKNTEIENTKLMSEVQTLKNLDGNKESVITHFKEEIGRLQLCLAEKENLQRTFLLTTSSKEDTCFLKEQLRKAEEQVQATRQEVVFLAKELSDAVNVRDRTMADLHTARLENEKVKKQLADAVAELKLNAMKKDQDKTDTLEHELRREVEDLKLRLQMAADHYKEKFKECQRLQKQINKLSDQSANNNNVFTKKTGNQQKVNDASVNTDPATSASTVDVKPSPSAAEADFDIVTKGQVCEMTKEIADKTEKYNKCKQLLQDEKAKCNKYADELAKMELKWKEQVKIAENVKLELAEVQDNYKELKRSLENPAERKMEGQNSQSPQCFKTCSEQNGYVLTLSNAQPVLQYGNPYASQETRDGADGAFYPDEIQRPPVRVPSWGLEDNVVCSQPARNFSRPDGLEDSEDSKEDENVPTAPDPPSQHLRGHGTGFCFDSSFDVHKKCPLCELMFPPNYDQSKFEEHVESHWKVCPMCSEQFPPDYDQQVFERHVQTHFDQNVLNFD

| Variant | effect of a mutation on the interaction |
| --- | --- |
| P194T | with no effect |

Variants of: B7
Conditions: with fate1_human FATE1, Q969F0

| Variant | effect of a mutation on the interaction |
| --- | --- |
| A115P | with no effect |
